Assay results published in US20040146964.

Columns and labels:
[1] = target: T1, synthetic polypeptide of HIF-1α residues 556-574, unmodified
T1 chain: DLDLEMLAPYIPMDDDFQL

[2] = target: T2, C. elegans HIF-α homologue, wild type
T2 chain: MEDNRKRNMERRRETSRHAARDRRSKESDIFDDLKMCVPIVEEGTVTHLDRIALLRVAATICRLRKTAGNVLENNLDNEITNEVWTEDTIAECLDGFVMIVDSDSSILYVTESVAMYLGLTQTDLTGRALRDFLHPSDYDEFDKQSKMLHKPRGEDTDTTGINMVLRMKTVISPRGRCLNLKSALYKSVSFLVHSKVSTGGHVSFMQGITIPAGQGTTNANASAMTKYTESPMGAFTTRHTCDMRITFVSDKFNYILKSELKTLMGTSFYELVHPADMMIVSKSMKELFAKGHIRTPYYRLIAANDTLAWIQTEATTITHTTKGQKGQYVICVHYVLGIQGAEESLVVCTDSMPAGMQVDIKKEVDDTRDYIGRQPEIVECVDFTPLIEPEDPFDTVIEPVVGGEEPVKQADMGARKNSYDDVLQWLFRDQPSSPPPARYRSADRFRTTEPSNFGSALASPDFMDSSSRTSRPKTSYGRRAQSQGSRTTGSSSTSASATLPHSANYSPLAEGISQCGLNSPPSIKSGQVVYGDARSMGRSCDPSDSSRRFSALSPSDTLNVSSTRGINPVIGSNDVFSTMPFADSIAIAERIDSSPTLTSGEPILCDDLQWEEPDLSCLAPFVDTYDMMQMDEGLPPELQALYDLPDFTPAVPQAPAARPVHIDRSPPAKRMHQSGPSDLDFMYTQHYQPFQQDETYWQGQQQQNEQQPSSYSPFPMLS

[3] = target: full length HIF-1α double mutant P402A+P564G
Sequence of full length HIF-1α double mutant P402A+P564G (chain, as listed by the source P402A P564G): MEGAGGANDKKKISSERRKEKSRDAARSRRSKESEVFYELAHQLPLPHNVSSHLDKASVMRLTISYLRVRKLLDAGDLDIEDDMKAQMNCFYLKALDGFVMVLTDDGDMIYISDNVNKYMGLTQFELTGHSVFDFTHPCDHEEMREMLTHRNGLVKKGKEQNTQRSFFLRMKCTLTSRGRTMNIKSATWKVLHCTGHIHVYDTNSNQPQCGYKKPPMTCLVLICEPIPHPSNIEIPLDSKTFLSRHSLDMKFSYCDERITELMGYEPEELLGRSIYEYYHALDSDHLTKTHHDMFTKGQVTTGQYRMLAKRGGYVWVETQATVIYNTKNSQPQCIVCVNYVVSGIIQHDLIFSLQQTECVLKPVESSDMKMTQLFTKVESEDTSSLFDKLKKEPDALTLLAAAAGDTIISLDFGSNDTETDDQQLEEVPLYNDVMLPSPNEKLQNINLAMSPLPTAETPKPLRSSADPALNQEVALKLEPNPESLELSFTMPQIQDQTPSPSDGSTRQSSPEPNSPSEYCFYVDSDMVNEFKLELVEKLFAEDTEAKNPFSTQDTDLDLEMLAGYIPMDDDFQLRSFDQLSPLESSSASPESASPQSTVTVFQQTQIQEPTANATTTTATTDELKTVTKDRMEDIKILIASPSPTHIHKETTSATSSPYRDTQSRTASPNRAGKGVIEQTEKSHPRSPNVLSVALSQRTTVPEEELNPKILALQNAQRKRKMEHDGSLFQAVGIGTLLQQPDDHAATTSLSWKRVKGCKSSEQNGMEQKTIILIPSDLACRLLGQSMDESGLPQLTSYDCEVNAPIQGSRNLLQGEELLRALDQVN

[4] = target: human HIF-1α, full length wild type
[5] = target: full length HIF-1α P402A
Sequence of full length HIF-1α P402A (chain, as listed by the source P402A): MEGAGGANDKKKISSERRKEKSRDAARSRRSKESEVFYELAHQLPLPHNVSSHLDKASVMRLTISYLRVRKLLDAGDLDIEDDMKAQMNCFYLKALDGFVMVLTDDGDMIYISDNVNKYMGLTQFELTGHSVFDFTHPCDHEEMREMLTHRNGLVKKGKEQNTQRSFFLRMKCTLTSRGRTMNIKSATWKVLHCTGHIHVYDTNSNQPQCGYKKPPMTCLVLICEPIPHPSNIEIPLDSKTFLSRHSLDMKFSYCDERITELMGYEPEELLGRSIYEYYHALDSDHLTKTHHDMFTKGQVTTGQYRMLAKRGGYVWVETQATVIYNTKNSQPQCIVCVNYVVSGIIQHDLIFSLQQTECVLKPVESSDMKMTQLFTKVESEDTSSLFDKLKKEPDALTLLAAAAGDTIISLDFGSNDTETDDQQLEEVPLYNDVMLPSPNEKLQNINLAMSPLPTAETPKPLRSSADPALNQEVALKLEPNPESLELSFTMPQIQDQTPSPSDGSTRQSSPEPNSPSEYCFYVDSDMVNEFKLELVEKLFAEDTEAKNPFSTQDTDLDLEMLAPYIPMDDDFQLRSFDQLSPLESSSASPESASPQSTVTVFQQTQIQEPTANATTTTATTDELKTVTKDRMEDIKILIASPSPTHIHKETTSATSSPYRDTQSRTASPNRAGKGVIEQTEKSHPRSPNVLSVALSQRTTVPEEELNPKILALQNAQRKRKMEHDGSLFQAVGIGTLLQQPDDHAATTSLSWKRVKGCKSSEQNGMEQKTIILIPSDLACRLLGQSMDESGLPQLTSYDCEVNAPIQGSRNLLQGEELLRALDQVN

[6] = target: full length HIF-1α P564G
Sequence of full length HIF-1α P564G (chain, as listed by the source P564G): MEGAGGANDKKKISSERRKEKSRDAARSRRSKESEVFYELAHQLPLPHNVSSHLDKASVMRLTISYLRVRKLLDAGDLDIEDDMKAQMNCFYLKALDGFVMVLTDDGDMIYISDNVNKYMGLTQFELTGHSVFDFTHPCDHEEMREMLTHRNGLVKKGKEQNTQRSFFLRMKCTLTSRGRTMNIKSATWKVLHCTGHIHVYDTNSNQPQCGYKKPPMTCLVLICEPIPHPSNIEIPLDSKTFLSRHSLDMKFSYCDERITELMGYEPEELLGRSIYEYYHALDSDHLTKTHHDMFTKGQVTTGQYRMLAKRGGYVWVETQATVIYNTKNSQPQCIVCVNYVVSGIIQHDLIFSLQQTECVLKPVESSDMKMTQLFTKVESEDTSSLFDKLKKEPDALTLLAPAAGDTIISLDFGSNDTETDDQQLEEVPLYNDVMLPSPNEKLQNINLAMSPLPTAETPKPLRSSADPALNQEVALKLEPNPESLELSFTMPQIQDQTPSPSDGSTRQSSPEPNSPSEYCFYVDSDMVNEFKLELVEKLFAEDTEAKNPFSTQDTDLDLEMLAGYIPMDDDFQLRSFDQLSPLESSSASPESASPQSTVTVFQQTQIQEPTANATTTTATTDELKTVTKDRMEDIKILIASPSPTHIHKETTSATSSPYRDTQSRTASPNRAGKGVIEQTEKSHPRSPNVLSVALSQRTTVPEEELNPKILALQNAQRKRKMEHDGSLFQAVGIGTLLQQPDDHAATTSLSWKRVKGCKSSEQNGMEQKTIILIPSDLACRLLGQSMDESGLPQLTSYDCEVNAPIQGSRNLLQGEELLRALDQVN

B1: recombinant human type I prolyl 4-hydroxylase (protein)
chain 1: HPGFFTSIGQMTDLIHTEKDLVTSLKDYIKAEEDKLEQIKKWAEKLDRLTSTATKDPEGFVGHPVNAFKLMKRLNTEWSELENLVLKDMSDGFISNLTIQRQYFPNDEDQVGAAKALLRLQDTYNLDTDTISKGNLPGVKHKSFLTAEDCFELGKVAYTEADYYHTELWMEQALRQLDEGEISTIDKVSVLDYLSYAVYQQGDLDKALLLTKKLLELDPEHQRANGNLKYFEYIMAKEKDVNKSASDDQSDQKTTPKKKGVAVDYLPERQKYEMLCRGEGIKMTPRRQKKLFCRYHDGNRNPKFILAPAKQEDEWDKPRIIRFHDIISDAEIEIVKDLAKPRLRRATISNPITGDLETVHYRISKSAWLSGYENPVVSRINMRIQDLTGLDVSTAEELQVANYGVGGQYEPHFDFARKDEPDAFKELGTGNRIATWLFYMSDVSAGGATVFPEVGASVWPKKGTAVFWYNLFASGEGDYSTRHAACPVLVGNKWVSNKWLHERGQEFRRPCTLSELE
chain 2: not shown
prolyl 4-hydroxylase activity (hydroxylation-coupled decarboxylation of 2-oxoglutarate) [1]: the HIF polypeptide showed no activity

B2: recombinant C. elegans PHY-2 (protein)
chain: DLFTAIADLQHMLGAEKDVTTIIDQYIEAERARLDDLRRYAHEYVHRNAHAESVGPEFVTNPINAYLLIKRLTTEWKKVENIMLNNKASTFLKNITDNRVRSEVKFPGEEDLSGAATALLRLQDTYSLDTLDLSNGIIGGEKVSNKLSGHDTFEVGRSAYNQKDYYHCLMWMQVALVKIENENPPTIEEWEILEYLAYSLYQQGNVRRALSLTKRLAKIAPNHPRAKGNVKWYEDMLQGKDMVGDLPPIVNKRVEYDGIVERDAYEALCRGEIPPVEPKWKNKLRCYLKRDKPFLKLAPIKVEILRFDPLAVLFKNVIHDSEIEVIKELASPKLKRATVQNSKTGELEHATYRISKSAWLKGDLDPVIDRVNRRIEDFTNLNQATSEELQVANYGLGGHYDPHFDFARKEEKNAFKTLNTGNRIATVLFYMSQPERGGATVFNHLGTAVFPSKNDALFWYNLRRDGEGDLRTRHAACPVLLGVKWVSNKWIHEKGQEFTRPCGLEEEVQENFIGDLSPYANDP
modification of HIF-1 read by HA.VHL-1 capture [2]: had no activity in these assays

B3: recombinant C. elegans PHY-1 (protein)
chain: DLFTSIADMQNLLETERNIPKILDKYIHDEEERLVQLKKLSEEYSKKNEISIENGLKDITNPINAFLLIKRKIFDWKEIESKMNANKAGNVVSSITDDSYGVRYPTADDLSGAAIGLLRLQDTYRLDTKDLADGKIYADQGNYTFSAKDCFEIARAAYNEHDFYHTVMWMEEAQRRLGDEVEPTVEVEDILEYLAFALYKQNNLKHALKLTEELYKMNPTHPRAKGNVKWYEDLLEQEGVRRSDMRKNLPPIQNRRPDSVLGNTERTMYEALCRNEVPVSQKDISRLYCYYKRDRPFLVYAPIKVEIKRFNPLAVLFKDVISDDEVAAIQELAKPKLARATVHDSVTGKLVTATYRISKSAWLKEWEGDVVETVNKRIGYMTNLEMETAEELQIANYGIGGHYDPHFDHAKKEESKSFESLGTGNRIATVLFYMSQPSHGGGTVFTEAKSTILPTKNDALFWYNLYKQGDGNPDTRHAACPVLVGIKWVSNKWIHEKGNEFRRPCGLKSSDYERFVGDLGYGPEPRNAPNVSPNLAKDVWETL
modification of HIF-1 read by HA.VHL-1 capture [2]: had no activity in these assays

B4: rat SM-20, full length (protein)
chain: MPLGHIMRLDLEKIALEYIVPCLHEVGFCYLDNFLGEVVGDCVLERVKQLHYNGALRDGQLAGPRAGVSKRHLRGDQITWIGGNEEGCEAINFLLSLIDRLVLYCGSRLGKYYVKERSKAMVACYPGNGTGYVRHVDNPNGDGRCITCIYYLNKNWDAKLHGGVLRIFPEGKSFVADVEPIFDRLLFSWSDRRNPHEVQPSYATRYAMTVWYFDAEERAEAKKKFRNLTRKTESALAKD
promotion of VHL E3 capture (negative) [3]: No activity at all was observed with a double HIF-1α mutant, P402A P564G, that ablates both hydroxylation sites
promotion of the HIFα/VHL E3 interaction (anti-HA IP with 786-0/VHL extract) [4]: With full length wild-type HIF-1α, striking activity was observed with rat SM-20 and all three human gene products
promotion of VHL E3 capture via the C-terminal (P564) site [5]: interaction through the C-terminal site could be promoted by all enzymes

B5: human PHD3 (protein)
chain: MPLGHIMRLDLEKIALEYIVPCLHEVGFCYLDNFLGEVVGDCVLERVKQLHCTGALRDGQLAGPRAGVSKRHLRGDQITWIGGNEEGCEAISFLLSLIDRLVLYCGSRLGKYYVKERSKAMVACYPGNGTGYVRHVDNPNGDGRCITCIYYLNKNWDAKLHGGILRIFPEGKSFIADVEPIFDRLLFFWSDRRNPHEVQPSYATRYAMTVWYFDAEERAEAKKKFRNLTRKTESALTED
promotion of VHL E3 capture (negative) [3]: No activity at all was observed with a double HIF-1α mutant, P402A P564G, that ablates both hydroxylation sites
promotion of the HIFα/VHL E3 interaction (anti-HA IP with 786-0/VHL extract) [4]: With full length wild-type HIF-1α, striking activity was observed with rat SM-20 and all three human gene products
promotion of VHL E3 capture via the C-terminal (P564) site [5]: interaction through the C-terminal site could be promoted by all enzymes

B6: recombinant human type II prolyl 4-hydroxylase (protein)
chain 1: EFFTSIGHMTDLIYAEKELVQSLKEYILVEEAKLSKIKSWANKMEALTSKSAADAEGYLAHPVNAYKLVKRLNTDWPALEDLVLQDSAAGFIANLSVQRQFFPTDEDEIGAAKALMRLQDTYRLDPGTISRGELPGTKYQAMLSVDDCFGMGRSAYNEGDYYHTVLWMEQVLKQLDAGEEATTTKSQVLDYLSYAVFQLGDLHRALELTRRLLSLDPSHERAGGNLRYFEQLLEEEREKTLTNQTEAELATPEGIYERPVDYLPERDVYESLCRGEGVKLTPRRQKRLFCRYHHGNRAPQLLIAPFKEEDEWDSPHIVRYYDVMSDEEIERIKEIAKPKLARATVRDPKTGVLTVASYRVSKSSWLEEDDDPVVARVNRRMQHITGLTVKTAELLQVANYGVGGQYEPHFDFSRNDERDTFKHLGTGNRVATFLNYMSDVEAGGATVFPDLGAAIWPKKGTAVFWYNLLRSGEGDYRTRHAACPVLVGCKWVSNKWFHERGQEFLRPCGSTEVD
chain 2: not shown
prolyl 4-hydroxylase activity (hydroxylation-coupled decarboxylation of 2-oxoglutarate) [1]: the HIF polypeptide showed no activity

B7: human PHD2 (protein)
chain: MANDSGGPGGPSPSERDRQYCELCGKMENLLRCSRCRSSFYCCKEHQRQDWKKHKLVCQGSEGALGHGVGPHQHSGPAPPAAVPPPRAGAREPRKAAARRDNASGDAAKGKVKAKPPADPAAAASPCRAAAGGQGSAVAAEAEPGKEEPPARSSLFQEKANLYPPSNTPGDALSPGGGLRPNGQTKPLPALKLALEYIVPCMNKHGICVVDDFLGKETGQQIGDEVRALHDTGKFTDGQLVSQKSDSSKDIRGDKITWIEGKEPGCETIGLLMSSMDDLIRHCNGKLGSYKINGRTKAMVACYPGNGTGYVRHVDNPNGDGRCVTCIYYLNKDWDAKVSGGILRIFPEGKAQFADIEPKFDRLLFFWSDRRNPHEVQPAYATRYAITVWYFDADERARAKVKYLTGEKGVRVELNKPSDSVGKDVF
promotion of VHL E3 capture via the N-terminal (P402) site [6]: VHL E3 capture was less efficient when only the N-terminal site (P402) was intact, and was only promoted by EGLN2 (PHD1) and EGLN1(PHD2)
promotion of VHL E3 capture (negative) [3]: No activity at all was observed with a double HIF-1α mutant, P402A P564G, that ablates both hydroxylation sites
promotion of the HIFα/VHL E3 interaction (anti-HA IP with 786-0/VHL extract) [4]: With full length wild-type HIF-1α, striking activity was observed with rat SM-20 and all three human gene products
promotion of VHL E3 capture via the C-terminal (P564) site [5]: interaction through the C-terminal site could be promoted by all enzymes
